In patent US20250011413A1 (MCMASTER UNIVERSITY, published 2025):
“And” between values parts separate entries of the source, which are not always exact repeats. Identical values can stand only once.

T1: Human PF4 (CXCL4), biotinylated, without heparin (human, UniProt P02776 32-101, biotinylated with EZ-link-Sulfo-NHS-LC-Biotin (sites not given))
T1 construct: Immobilised on streptavidin biosensors for BLI; also called PF4 alone; platelet factor 4
T1 sequence: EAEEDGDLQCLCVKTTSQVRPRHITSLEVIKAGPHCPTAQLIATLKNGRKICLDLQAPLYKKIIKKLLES

T2: PF4/heparin complex (human PF4 complexed with heparin) (human, UniProt P02776 32-101)
T2 construct: Multimeric complex of PF4 with heparin (not a protein); In the EIAs: PF4 captured on biotinylated heparin on streptavidin plates; In the SRA: platelets with 0.2 U/mL heparin; also called PF4 and heparin complexes
T2 sequence: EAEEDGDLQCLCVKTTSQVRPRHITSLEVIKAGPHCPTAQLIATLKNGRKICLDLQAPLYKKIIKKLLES


Assays:
[1] = biological target: T1, Human PF4 (CXCL4), biotinylated, …; assay: BLI (Octet), biotinylated PF4 without heparin on streptavidin sensors, scFv 1 µg/mL
Description: (§1) The Octet-QK Red 96 (FortéBio, Menlo Park, CA) instrumentation was used to conduct all BLI experiments. A 96-well microtiter plate (black, flat-bottom) was used to hold 200 μL per well of either sample or buffer. Pre-coated streptavidin biosensor tips (FortéBio) were hydrated in phosphate buffered saline (PBS) containing 1% bovine serum albumin (BSA, Sigma-Aldrich) before performing all kinetic assays. Each step was performed at an operating temperature of 23° C. with agitation at 1000 rpm. Streptavidin tips were first equilibrated in PBS+1% BSA to establish a baseline. […] The PF4-coated tips were then dipped into PBS+1% BSA for 13 minutes to re-establish a baseline. Tips were then incubated in an analyte solution containing half-fold dilutions of wildtype scFv (4.0, 2.0, 1.0, 0.5, 0.25 μg/mL in PBS+1% BSA) for 10 minutes to measure association. For mutant scFv association, tips were incubated in an analyte solution containing 200 μL of each mutant and wildtype scFv at a final concentration of 1 μg/mL in PBS+1% BSA. Antibody dissociation steps were performed by dipping sensors in wells containing PBS+1% BSA for 56 minutes. The following negative controls included in these kinetic experiments were also measured: 200 μL of buffer to replace both the antigen and scFv and 200 μL buffer replacing scFv only. Each experiment was performed with PF4 or with PF4/heparin as the immobilized antigen.
(§2) BLI experiments were performed to evaluate binding responses and affinities of wildtype and mutant scFv. Biotinylated PF4 alone or complexed with heparin was immobilized on streptavidin biosensors and used to capture wildtype scFv. Half-fold serial dilutions of wildtype scFv ranging from 0.25 μg/mL to 4 μg/mL were used to determine the optimal concentrations for future experiments PF4 (PF4 FIG. 3; PF4/heparin FIG. 4).

[2] = biological target: T2, PF4/heparin complex (human PF4 …); assay: competition EIA on PF4/biotinylated heparin, scFv 0-160 µg/mL; competitor full-length KKO 2 µg/mL
Description: Inhibitory PF4/heparin IgG-specific Streptavidin Enzyme Immunoassay (EIA). The binding activity of wildtype and mutant scFv antibodies to PF4/heparin complexes was measured using an inhibitory PF4/heparin IgG-specific EIA with a streptavidin-biotin capture system. Before performing this protocol, 96-well NUNC Maxisorp plates (ThermoFisher) were coated with 10 μg/mL streptavidin for 24 h. Plates were then blocked with 3% bovine serum albumin (BSA) in phosphate buffered saline (PBS) for 2 h at room temperature. Plates were then coated with 1 U/mL biotinylated-heparin for 1 h followed by 30 μg/mL PF4 for 1 h. Increasing concentrations of wildtype or mutant scFv were added and incubated for 1 hr at room temperature. Without removing wildtype or scFv, HIT patient sera in a 1:50 dilution or full-length KKO (2 μg/mL) was then incubated for 1 h at room temperature. After washing, alkaline phosphatase-conjugated anti-human or anti-mouse IgG (Jackson Immuno Research Laboratories, Inc., West Grove, PA) was added at a 1:4000 dilution and incubated for 1 h temperature. For detection, 1 mg/mL p-nitrophenylphosphate (PNPP, Sigma-Aldrich) substrate dissolved in 1 mol/L diethanolamine (DEA) buffer (pH 9.6) was added. The optical density (OD) was measured at 2 min intervals for 30 min at 405 nm (OD₄₀₅ₙₘ) using a BioTek 800 TS plate reader (BioTek Instruments Inc., Winooski, VT) to determine if anti-PF4/heparin antibody binding was inhibited. Results were reported as a decrease in OD (absorbance at 405 nm) from baseline levels.
To further evaluate the binding of mutant and wildtype scFv, their ability to inhibit full-length KKO from binding PF4/heparin complexes was assessed in a modified streptavidin-capture EIA. Biotinylated heparin was immobilized with PF4 on streptavidin-coated plates and incubated with KKO in the presence of scFv at half-fold serial dilutions from 0 to 160 μg/mL. […] Wildtype scFv and mutant C were unable to inhibit full-length KKO binding at these concentrations and IC50 values for these constructs were not calculated.

[3] = biological target: T2, PF4/heparin complex (human PF4 …); assay: BLI (Octet), biotinylated PF4/heparin on streptavidin sensors, scFv 1 µg/mL, 1:1 model
Description: as §1, §2

[4] = biological target: T2, PF4/heparin complex (human PF4 …); assay: BLI (Octet), biotinylated PF4/heparin on streptavidin sensors, scFv 1 µg/mL
Description: as §1, §2

[5] = biological target: T2, PF4/heparin complex (human PF4 …); assay: cell-based or functional assay
[6] = biological target: T2, PF4/heparin complex (human PF4 …); assay: competition EIA, scFv 50 µg/mL; competitor HIT-negative sera antibodies, n=10

Row | Binder | average binding response (wavelength shift) [1] | fold increase of binding response against wildtype scFv [1] | IC50 [2] | Kd [3] | average binding response (wavelength shift) [4] | fold increase of binding response against wildtype scFv [4] | % inhibition of 14C-serotonin release (SRA), HIT-Positive Patient #1 serum, scFv 50 µg/mL [5] | % inhibition of 14C-serotonin release (SRA), HIT-Positive Patient #1 serum, scFv 75 µg/mL [5] | % inhibition of 14C-serotonin release (SRA), HIT-Positive Patient #2 serum, scFv 50 µg/mL [5] | % inhibition of 14C-serotonin release (SRA), HIT-Positive Patient #2 serum, scFv 75 µg/mL [5] | % inhibition of 14C-serotonin release (SRA), HIT-Positive Patient #3 serum, scFv 50 µg/mL [5] | % inhibition of 14C-serotonin release (SRA), HIT-Positive Patient #3 serum, scFv 75 µg/mL [5] | % inhibition of 14C-serotonin release (SRA), HIT-Positive Patient #4 serum, scFv 50 µg/mL [5] | % inhibition of 14C-serotonin release (SRA), HIT-Positive Patient #4 serum, scFv 75 µg/mL [5] | % inhibition of 14C-serotonin release (SRA), HIT-Positive Patient #5 serum, scFv 50 µg/mL [5] | % inhibition of 14C-serotonin release (SRA), HIT-Positive Patient #5 serum, scFv 75 µg/mL [5] | mean % inhibition of serum antibody binding [6] | fold higher binding response than wildtype scFv [1] | fold stronger affinity than wildtype scFv [3] | other results
1 | Mutant B scFv, scFv(R18K, N152K, D180N) (scFv, VL-linker-VH; histidine-tagged, from E. coli BL21; also called Mut B; not shown: histidine tag from the pADL-22c vector) scFv: DIQMIQSQKFMSTSVGDKVTVTCKASQNVGTNVAWYQQKPGQSPNALIYSASYRYSGVPDRFTGSGSGTDFTLTITNVQSEDLADYFCQQYNSYPLTFGTGTKLDLKGGGGSGGGGSGGGGSVQLQQSGAELVKPGASVKLSCKASGYTFTKYFIYWVKQRPGQGLEWIGEINPRNGDTNFNEKFESRATLTVDKSSSTAYMQLSSLTSEDSAIYYCTRSPYGNNYGFTYWGQGTLVTVSA | 0.267 nm | 7 fold | 57.3 nM and 1.6 µg/mL | 1.36 nM | 0.379 nm | 4 fold | 71.1% | 97.8% | 71.8% | 19.2% | 6% | 14.5% | 7.8% | 58.9% | 90.3% | 80.6% | -31.4% |  |  | fold change of KD against wildtype scFv [3]: 100 fold
2 | Mutant D scFv, scFv(Y156H) (scFv, VL-linker-VH; histidine-tagged, from E. coli BL21; also called Mut D; not shown: histidine tag from the pADL-22c vector) scFv: DIQMIQSQKFMSTSVGDRVTVTCKASQNVGTNVAWYQQKPGQSPNALIYSASYRYSGVPDRFTGSGSGTDFTLTITNVQSEDLADYFCQQYNSYPLTFGTGTKLDLKGGGGSGGGGSGGGGSVQLQQSGAELVKPGASVKLSCKASGYTFTNYFIHWVKQRPGQGLEWIGEINPRNGDTDFNEKFESRATLTVDKSSSTAYMQLSSLTSEDSAIYYCTRSPYGNNYGFTYWGQGTLVTVSA | 0.145 nm |  | 111 nM and 3.1 µg/mL | 3.77 nM | 0.133 nm |  | 42.2% | 94.4% | 12.8% | 16.7% | 10.8% | 36.1% | 20% | 38.9% | 69.4% | 87.5% | -17.3% | ≥ 3 fold | 100 fold | fold higher binding response than wildtype scFv [4]: ≥ 3 fold

Further lines, with some results ahead:

Row | average binding response (wavelength shift) [1] | fold increase of binding response against wildtype scFv [1] | IC50 [2] | Kd [3] | average binding response (wavelength shift) [4] | fold increase of binding response against wildtype scFv [4] | % inhibition of 14C-serotonin release (SRA), HIT-Positive Patient #1 serum, scFv 50 µg/mL [5] | % inhibition of 14C-serotonin release (SRA), HIT-Positive Patient #1 serum, scFv 75 µg/mL [5] | % inhibition of 14C-serotonin release (SRA), HIT-Positive Patient #2 serum, scFv 50 µg/mL [5] | % inhibition of 14C-serotonin release (SRA), HIT-Positive Patient #2 serum, scFv 75 µg/mL [5] | % inhibition of 14C-serotonin release (SRA), HIT-Positive Patient #3 serum, scFv 50 µg/mL [5] | % inhibition of 14C-serotonin release (SRA), HIT-Positive Patient #3 serum, scFv 75 µg/mL [5] | % inhibition of 14C-serotonin release (SRA), HIT-Positive Patient #4 serum, scFv 50 µg/mL [5] | % inhibition of 14C-serotonin release (SRA), HIT-Positive Patient #4 serum, scFv 75 µg/mL [5] | % inhibition of 14C-serotonin release (SRA), HIT-Positive Patient #5 serum, scFv 50 µg/mL [5] | % inhibition of 14C-serotonin release (SRA), HIT-Positive Patient #5 serum, scFv 75 µg/mL [5] | mean % inhibition of serum antibody binding [6] | fold higher binding response than wildtype scFv [1] | fold stronger affinity than wildtype scFv [3] | Binder | other results
3 | 0.211 nm | 5 fold | 1.3 µg/mL | 0.292 nM | 0.285 nm | 5 fold | 97.8% |  | 21.8% |  | 50.6% |  | 50% |  | 90.3% |  | -57% |  |  | Mutant F scFv, scFv(E183V, E186K, G223R) (scFv, VL-linker-VH; histidine-tagged, from E. coli BL21; also called Mut F; not shown: histidine tag from the pADL-22c vector) scFv: DIQMIQSQKFMSTSVGDRVTVTCKASQNVGTNVAWYQQKPGQSPNALIYSASYRYSGVPDRFTGSGSGTDFTLTITNVQSEDLADYFCQQYNSYPLTFGTGTKLDLKGGGGSGGGGSGGGGSVQLQQSGAELVKPGASVKLSCKASGYTFTNYFIYWVKQRPGQGLEWIGEINPRNGDTDFNVKFKSRATLTVDKSSSTAYMQLSSLTSEDSAIYYCTRSPYRNNYGFTYWGQGTLVTVSA | 
4 | 0.0986 nm |  | 293 nM and 8.2 µg/mL | 0.275 nM | 0.0907 nm |  | 14.4% | 25.6% | 9% | 10.3% | 14.5% | 9.6% | 6.7% | 4.4% | 47.2% | 59.7% | -34% | 2 fold | 100 fold | Mutant E scFv, scFv(Y156H, D180G, Q233P) (scFv, VL-linker-VH; histidine-tagged, from E. coli BL21; also called Mut E; not shown: histidine tag from the pADL-22c vector) scFv: DIQMIQSQKFMSTSVGDRVTVTCKASQNVGTNVAWYQQKPGQSPNALIYSASYRYSGVPDRFTGSGSGTDFTLTITNVQSEDLADYFCQQYNSYPLTFGTGTKLDLKGGGGSGGGGSGGGGSVQLQQSGAELVKPGASVKLSCKASGYTFTNYFIHWVKQRPGQGLEWIGEINPKNGDTGFNEKFESRATLTVDKSSSTAYMQLSSLTSEDSAIYYCTRSPYGNNYGFTYWGPGTLVTVSA | 
